Source: patent publication US20110123676A1, “ENZYMATIC TREATMENT OF A PROTEINACEOUS SUBSTRATE BY ENZYMATIC REMOVAL OF FREE THIOLS” (priority 2008, published 2011)
“Also recorded” adds a separate entry of the source.

Assays:
myosin [1] = test: SDS-PAGE analysis of protein cross-linking, pork extract; type: biochemical; details: for protein cross-linking (SDS-PAGE): treatment with the named enzyme alone, vs reference
Method: (§1) Protein Extractions: • 1. Brine was made using 2% NaCl and 0.3% STPP • 2. 20 g portions of meat were placed in 250 ml baffled shake flasks • 3. 60 ml of brine were added to each shake flask. • 4. The shake flasks were placed on a rotary shaker (Certomat R, Braun Int.); 120 min at room temperature and 180 rpm • 5. The meat-brine suspension was centrifuged for 60 min at 10000 g and 5° C. • 6. The fat particles were removed by filtering the supernatant through a 0.8 mm grid • 7. The meat-protein extract (supernatant) was stored at −18° C. Dialysis was carried out in Slide-A-Lyzer Dialysis Cassette from Pierce (Order nr: 66810). The dialysis was carried out at 4° C. overnight with one shift of dialysis buffer. Sample Preparation/Enzyme Treatment for SDS-PAGE Analysis Enzyme treatment of the protein extracts prior to SDS-PAGE analysis was done as follows: Tyrosinase was added to a final concentration of 15.5 nkat/ml extract (corresponding to 0.015 mg tyrosinase per ml extract) and incubated for 60 min at 40° C. TGase was added to a final concentration of 2.5 nkat/ml extract (corresponding to 0.015 mg TGase pr. ml extract) and incubated for 60 min at 40° C. sulfhydryl oxidase was added to a final concentration of 0.0033 (low sulfhydryl oxidase) or 0.033 (high sulfhydryl oxidase) nkat/ml. It was always added prior to or simultaneously with other enzyme treatment. If added prior to other enzyme treatment, an incubation time of 60 min at room temperature was applied. SDS-Page Analysis: SDS-PAGE was carried out on Pre-cast Novex Bis-Tris gels (Invitrogen, Carlsbad Calif., USA) according to manufacturers' protocol. For non-reducing SDS-PAGE, DTT was left out of the sample buffer.

tyrosinase = test: Tyrosinase spot assay and test of inhibition (skimmed milk); type: biochemical, Hypocrea jecorina; details: activity spot test, cysteine and enzyme in contact about 1 min before adding the substrate
Method: Tyrosinase Spot Assay and Test of Inhibition Spot assay of tyrosinase activity was determined by adding 11 nkat of tyrosinase to 1 ml of skimmed milk. Red colour formation within 5-10 seconds is an indication of high of tyrosinase activity. To test for tyrosinase inhibition, either the inhibitor is mixed with tyrosinase before addition to the milk or the inhibitor is added to the milk prior to tyrosinase addition. The inhibitors tested were free cysteine at final concentrations of 1 or 0.1 mM or meat extracts diluted 10 times in the final sample.

myosin [2] = test: SDS-PAGE analysis of protein cross-linking, cod extract; type: biochemical; details: treatment with the named enzyme alone, vs reference
Method: as §1, with “C.” for “C. Dialysis was carried out in Slide-A-Lyzer Dialysis Cassette from Pierce (Order nr: 66810). The dialysis was carried out at 4° C. overnight with one shift of dialysis buffer.”, “SDS-Page Analysis: SDS-PAGE was carried out on Pre-cast Novex Bis-Tris gels (Invitrogen, Carlsbad Calif., USA) according to manufacturers' protocol. For non-reducing SDS-PAGE, DTT was left out of the sample buffer.” left out

[3] = according to supplier; cited from earlier work
myosin [4] = test: SDS-PAGE analysis of protein cross-linking, beef extract; type: biochemical; details: for protein cross-linking (SDS-PAGE): treatment with the named enzyme alone, vs reference
Method: as §1, with “C.” for “C. Dialysis was carried out in Slide-A-Lyzer Dialysis Cassette from Pierce (Order nr: 66810). The dialysis was carried out at 4° C. overnight with one shift of dialysis buffer.”

myosin [5] = test: SDS-PAGE analysis of protein cross-linking, turkey extract; type: biochemical; details: treatment with the named enzyme alone, vs reference
Method: as §1, with “C.” for “C. Dialysis was carried out in Slide-A-Lyzer Dialysis Cassette from Pierce (Order nr: 66810). The dialysis was carried out at 4° C. overnight with one shift of dialysis buffer.”, “SDS-Page Analysis: SDS-PAGE was carried out on Pre-cast Novex Bis-Tris gels (Invitrogen, Carlsbad Calif., USA) according to manufacturers' protocol. For non-reducing SDS-PAGE, DTT was left out of the sample buffer.” left out

myosin [6] = test: SDS-PAGE analysis of protein cross-linking, chicken extract; type: biochemical; details: treatment with the named enzyme alone, vs reference
Method: as §1, with “C.” for “C. Dialysis was carried out in Slide-A-Lyzer Dialysis Cassette from Pierce (Order nr: 66810). The dialysis was carried out at 4° C. overnight with one shift of dialysis buffer.”, “SDS-Page Analysis: SDS-PAGE was carried out on Pre-cast Novex Bis-Tris gels (Invitrogen, Carlsbad Calif., USA) according to manufacturers' protocol. For non-reducing SDS-PAGE, DTT was left out of the sample buffer.” left out

myosin [7] = test: SDS-PAGE analysis of protein cross-linking, lamb extract; type: biochemical; details: treatment with the named enzyme alone, vs reference
Method: as §1, with “C.” for “C. Dialysis was carried out in Slide-A-Lyzer Dialysis Cassette from Pierce (Order nr: 66810). The dialysis was carried out at 4° C. overnight with one shift of dialysis buffer.”, “SDS-Page Analysis: SDS-PAGE was carried out on Pre-cast Novex Bis-Tris gels (Invitrogen, Carlsbad Calif., USA) according to manufacturers' protocol. For non-reducing SDS-PAGE, DTT was left out of the sample buffer.” left out

[8] = Tyrosinase activity (nkat); type: biochemical; details: enzyme used in the examples
Method: One unit of tyrosinase activity—1 nkat is defined as the amount of enzyme that converts 1 nmol of L-DOPA into DOPA-quinone pr. second at pH 7 and 25° C.

[9] = according to supplier; cited from earlier work; remark: listed apart in the source

Row | Molecule | protein cross-linking (SDS-PAGE) (myosin [2]) | protein cross-linking (SDS-PAGE) (myosin [4]) | protein cross-linking (SDS-PAGE) (myosin [5]) | protein cross-linking (SDS-PAGE) (myosin [6]) | protein cross-linking (SDS-PAGE) (myosin [7]) | protein cross-linking (SDS-PAGE) (myosin [1]; pork extract) | further results
1 | O=P(O)(O)OP(=O)(O)OP(=O)(O)O [STPP, Sodium tripolyphosphate] | – | – | – | – | – | – | effect of removing STPP on tyrosinase cross-linking (SDS-PAGE) (myosin [1]; pork extract dialysed against a solution free of STPP): no further efficiency of tyrosinase cross-linking was observed
2 | [Cu] [copper] | – | – | – | – | – | – | effect of extra copper on tyrosinase activity (myosin [1]; pork extract, results not shown): did not seem to enhance tyrosinase activity
3 | N[C@@H](CS)C(=O)O [cysteine] | – | – | – | – | – | – | cysteine concentration giving inhibition of the tyrosinase (tyrosinase): above 10 μM; cysteine concentration giving inhibition of the tyrosinase (tyrosinase; listed as free cysteine): about 10 μM
4 | TrTyr2: Tyrosinase (TrTyr2; VTT, Finland); tyrosinase 2 of Hypocrea jecorina, derived from SEQ ID NO 2 (protein, listed as Hypocrea jecorina, signal peptide cleaved) MLLSASLSALALATVSLAQGTTHIPVTGVPVSPGAAVPLRQNINDLAKSGPQWDLYVQAMYNMSKMDSHDPYSFFQIAGIHGAPYIEYNKAGAKSGDGWLGYCPHGEDLFISWHRPYVLLFEQALVSVAKGIANSYPPSVRAKYQAAAASLRAPYWDWAADSSVPAVTVPQTLKINVPSGSSTKTVDYTNPLKTYYFPRMSLTGSYGEFTGGGNDHTVRCAASKQSYPATANSNLAARPYKSWIYDVLTNSQNFADFASTSGPGINVEQIHNAIHWDGACGSQFLAPDYSGFDPLFFMHHAQVDRMWAFWEAIMPSSPLFTASYKGQSRFNSKSGSTITPDSPLQPFYQANGKFHTSNTVKSIQGMGYSYQGIEYWQKSQAQIKSSVTTIINQLYGPNSGKKRNAPRDFLSDIVTDVENLIKTRYFAKISVNVTEVTVRPAEINVYVGGQKAGSLIVMKLPAEGTVNGGFTIDNPMQSILHGGLRNAVQAFTEDIEVEILSKDGQAIPLETVPSLSIDLEVANVTLPSALDQLPKYGQRSRHRAKAAQRGHRFAVPHIPPL | the myosin band disappears entirely; also recorded: fading of the myosin band is most pronounced | indicating protein cross-linking | varying degrees of myosin-band fading | varying degrees of myosin-band fading; also recorded: least extensive fading of the myosin band | varying degrees of myosin-band fading; also recorded: least extensive fading of the myosin band | no cross-linking seems to take place | tyrosinase activity [3]: 1067 nkat/ml; tyrosinase cross-linking with or without sulfhydryl oxidase-treatment (SDS-PAGE) (myosin [4]): able to cross-link proteins; specific activity [8]: about 300 nkat/mg; tyrosinase activity after dialysis of extract (SDS-PAGE) (myosin [1]; pork extract dialysed against the same solution as used for extraction): rendered the tyrosinase active; tyrosinase activity after dilution of extract (SDS-PAGE) (myosin [1]; ten times dilution of the pork extract prior to tyrosinase treatment, results not shown): rendered the enzyme active
5 | TGase: TGase (Activa MP; Ajinomoto), well-known protein cross-linking enzyme used as positive reference (protein, UniProt P81453 77-407, looked up) Protein-glutamine …: DSDDRVTPPAEPLDRMPDPYRPSYGRAETVVNNYIRKWQQVYSHRDGRKQQMTEEQREWLSYGCVGVTWVNSGQYPTNRLAFASFDEDRFKNELKNGRPRSGETRAEFEGRVAKESFDEEKGFQRAREVASVMNRALENAHDESAYLDNLKKELANGNDALRNEDARSPFYSALRNTPSFKERNGGNHDPSRMKAVIYSKHFWSGQDRSSSADKRKYGDPDAFRPAPGTGLVDMSRDRNIPRSPTSPGEGFVNFDYGWFGAQTEADADKTVWTHGNHYHAPNGSLGAMHVYESKFRNWSEGYSDFDRGAYVITFIPKSWNTAPDKVKQGWP | efficient | efficient | efficient | efficient | efficient | efficient | TGase activity [9]: 1666 nkat/g
